Results as given in publication PMC4227783.

Target: T1, TbTRF Myb domain (Trypanosoma brucei, UniProt Q4VHG6 281-382)
T1 sequence: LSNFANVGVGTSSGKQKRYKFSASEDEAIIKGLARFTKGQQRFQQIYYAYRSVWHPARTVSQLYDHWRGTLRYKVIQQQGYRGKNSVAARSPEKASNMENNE
Assay: ITC

B1: regular 13-mer telomeric oligo (dsDNA)
DNA 1: GGTTAGGGTTAGG
DNA 2: CCTAACCCTAACC
- binding result: binds
